The results in this text go back to publication PMC5467005, “Functional Characterization of Tea (Camellia sinensis) MYB4a Transcription Factor Using an Integrative Approach”.

This series concerns the target CsMYB4a (Camellia sinensis, UniProt A0A1V0G0T8 1-244). The series can be described thus: EMSA; Not given; EMSA according to Shen et al. 2012; salmon sperm DNA as non-specific competitor. The note with it: protein: recombinant; tags: N-terminal His-tag; blunt. On the technique in general: In EMSA bound probe runs differently from free probe, usually more slowly.

Sequence of CsMYB4a (A0A1V0G0T8 entry or part of it): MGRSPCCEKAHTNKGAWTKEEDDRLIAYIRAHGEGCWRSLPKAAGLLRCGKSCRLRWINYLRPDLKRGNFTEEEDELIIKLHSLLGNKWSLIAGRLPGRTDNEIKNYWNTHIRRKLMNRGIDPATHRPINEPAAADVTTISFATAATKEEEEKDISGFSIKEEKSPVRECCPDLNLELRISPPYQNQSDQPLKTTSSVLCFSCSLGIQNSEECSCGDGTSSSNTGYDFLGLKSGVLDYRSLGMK

B1: AC-III probe (dsDNA)
DNA 1: CCAGTCCACCTAACTCTACCTAACTCTACCTAACGCTGTTC
DNA 2: GAACAGCGTTAGGTAGAGTTAGGTAGAGTTAGGTGGACTGG
As to B1, the binding result is reported as “binds”.

B2: AC-IV probe (dsDNA)
DNA 1: CCAGTCCACCAAACTCTACCAAACTCTACCAAACGCTGTTC
DNA 2: GAACAGCGTTTGGTAGAGTTTGGTAGAGTTTGGTGGACTGG
As for B2, the binding result is “binds”.

B3: AC-I probe (dsDNA)
DNA 1: CGGTACCAGTCCACCTACCGCCACCTACCGCCACCTACCGCTGTTCTCGA
DNA 2: TCGAGAACAGCGGTAGGTGGCGGTAGGTGGCGGTAGGTGGACTGGTACCG
For the molecule B3, the binding result is listed as “binds”.

B4: AC-II probe (dsDNA)
DNA 1: CGGTACCAGTCCACCAACCGCCACCAACCGCCACCAACCGCTGTTCTCGA
DNA 2: TCGAGAACAGCGGTTGGTGGCGGTTGGTGGCGGTTGGTGGACTGGTACCG
With B4, the binding result was “binds”.
